Test results from patent US20210395344A1 (TWIST BIOSCIENCE, published 2021).
Where a chain is given by its changes, count along the chain named. Like-named read-outs stand apart in the source and are kept apart here.

Experiments:
Assay in all cases: phage ELISA
[1] = biological target: T1, Acro COVID S1 (S1N-C82E8) (SARS-CoV-2, UniProt P0DTC2 16-685)
T1 construct: domain: S1

[2] = biological target: T1, Acro COVID S1 (S1N-C82E8); remark: listed apart in the source
[3] = biological target: T2, Acro COVID S1 (S1N-C82E8) (SARS-CoV-2, UniProt P0DTC2 16-685)
T2 construct: domain: S1 (subunit 1)

B1: 1-32 (antibody, V domains shown)
VH: EVQLLESGGGLVQPGGSLRLSCAASGFTFSSYAMYWVRQAPGKGLEWVSAISGSGGSTFYADSVKGRFTISRDNSKNTLYLQMNSLRAEDTAVYYCTRPPYGDYGDYWGQGTLVTVSS
VL: QSALTQPASVSGSPGQSITISCTGTSSDVGGYNLVSWYQQHPGKAPKLMIYEGNKRPSGVSNRFSGSKSGNTASLTISGLQAEDEADYYCCSYAGSSTFPVVFGGGTKLTVL
notes: also called variant 1-32
ELISA fold over background [1]: 11.5 fold over background
ELISA fold over background [2]: 11.5 fold over background

B2: 1-29 (antibody, V domains shown)
VH: EVQLLESGGGLVQPGGSLRLSCAASGFTFSSYAMYWVRQAPGKGLEWVSAISGSAGSTYYADSVKGRFTISRDNSKNTLYLQMNSLRAEDTAVYYCARDTNDFWSGYSIFDPWGQGTLVTVSS
VL: QSALTQPASVSGSPGQSITISCTGTSSDIGSYNLVSWYQQHPGKAPKLMIYEGTKRPSGVSNRFSGSKSGNTASLTISGLQAEDEADYYCCSYAGSRTYVFGGGTKLTVL
notes: also called variant 1-29
ELISA fold over background [1]: 1.1 fold over background
ELISA fold over background [2]: 1.1 fold over background

B3: 1-42 (antibody, V domains shown)
VH: EVQLLESGGGLVQPGGSLRLSCAASGVTFSSYAMSWVRQAPGKGLEWVSAITGSGGSTYYADSVKGRFTISRDNSKNTLYLQMNSLRAEDTAVYYCAKHGSGTIFGVVIAKYYFDYWGQGTLVTVSS
VL: B2 VL with I29V, S31R, T54G, G95S, R97S, Y99L
notes: also called variant 1-42
ELISA fold over background [1]: 22.7 fold over background
ELISA fold over background [2]: 22.7 fold over background

B4: SARS-CoV-2 variant 1-37 (antibody, V domains shown)
VH: B1 VH with S30T, Y35N, S49T
VL: B2 VL
specificity ELISA, fold over background [3]: 11.6 fold over background

B5: 1-17 (antibody, V domains shown)
VH: B2 VH
VL: B2 VL
notes: also called variant 1-17
ELISA fold over background [1]: 25.1 fold over background
ELISA fold over background [2]: 25.1 fold over background

B6: SARS-CoV-2 variant 1-29 (antibody, V domains shown)
VH: B2 VH
VL: B2 VL
specificity ELISA, fold over background [3]: 1.1 fold over background

B7: SARS-CoV-2 variant 1-17 (antibody, V domains shown)
VH: B2 VH
VL: B2 VL
specificity ELISA, fold over background [3]: 25.1 fold over background

B8: 1-2 (antibody, V domains shown)
VH: EVQLLESGGGLVQPGGSLRLSCAASGFTFSSQAMSWVRQAPGKGLEWVSAISGSGGGTYYADSVKGRFTISRDNSKNTLYLQMNSLRAEDTAVYYCAKDRRFGEFDPWGQGTLVTVSS
VL: QSALTQPASVSGSPGQSITISCTGTSSGVGSYNLVSWYQQHPGKAPKLMIYEGIKRPSGVSNRFSGSKSGNTASLTISGLQAEDEADYYCCSYAGSSSFVVFGGGTKLTVL
notes: also called variant 1-2
ELISA fold over background [1]: 1.8 fold over background
ELISA fold over background [2]: 1.8 fold over background

B9: 1-31 (antibody, V domains shown)
VH: B1 VH with Y35N
VL: B8 VL with G28D, S31K, I54S, K55Q, S97R, S98T, F99P
notes: also called variant 1-31
ELISA fold over background [1]: 30.4 fold over background
ELISA fold over background [2]: 30.4 fold over background

B10: 1-47 (antibody, V domains shown)
VH: B8 VH
VL: B8 VL
notes: also called variant 1-47
ELISA fold over background [1]: 8.1 fold over background
ELISA fold over background [2]: 8.1 fold over background

B11: 1-27 (antibody, V domains shown)
VH: EVQLLESGGGLVQPGGSLRLSCAASGFTFSSYAMTWVRQAPGKGLEWVSAISGSGGGTYYADSVKGRFTISRDNSKNTLYLQMNSLRAEDTAVYYCASSSSWQFDYWGQGTLVTVSS
VL: B8 VL with G28Y, S31H, I54S, K55R, S97Y, S98T, F99H, V100Y
notes: also called variant 1-27
ELISA fold over background [1]: 1.5 fold over background
ELISA fold over background [2]: 1.5 fold over background

B12: 1-10 (antibody, V domains shown)
VH: EVQLLESGGGLVQPGGSLRLSCAASGFTFSSYDMSWVRQAPGKGLEWVSVISGSGGSTYYADSVKGRFTISRDNSKNTLYLQMNSLRAEDTAVYYCAKGPLVGWYFDLWGQGTLVTVSS
VL: B8 VL with G28N, I54T
notes: also called variant 1-10
ELISA fold over background [1]: 17.4 fold over background
ELISA fold over background [2]: 17.4 fold over background

B13: 1-3 (antibody, V domains shown)
VH: B8 VH
VL: B8 VL with T25I, G28D, I54T
notes: also called variant 1-3
ELISA fold over background [1]: 1.6 fold over background
ELISA fold over background [2]: 1.6 fold over background

B14: 1-7 (antibody, V domains shown)
VH: B12 VH
VL: B8 VL with G28D, V29F, I54N, S98T
notes: also called variant 1-7
ELISA fold over background [1]: 6.8 fold over background
ELISA fold over background [2]: 6.8 fold over background

B15: 1-4 (antibody, V domains shown)
VH: B8 VH
VL: B8 VL with G28D, S31T, I54S, K55Q
notes: also called variant 1-4
ELISA fold over background [1]: 1 fold over background
ELISA fold over background [2]: 1 fold over background

B16: 1-30 (antibody, V domains shown)
VH: B1 VH with Y35T
VL: B8 VL with S27R, G28D, I54T, S97R, S98T, F99P
notes: also called variant 1-30
ELISA fold over background [1]: 16.8 fold over background
ELISA fold over background [2]: 16.8 fold over background

B17: 1-28 (antibody, V domains shown)
VH: B11 VH with A33G, T35S
VL: B8 VL with I54S, K55Q, S98T, F99H, V100Y
notes: also called variant 1-28
ELISA fold over background [1]: 1 fold over background
ELISA fold over background [2]: 1 fold over background

B18: 1-5 (antibody, V domains shown)
VH: B8 VH
VL: B8 VL with G53A, I54S, S97Y, S98T, V100A
notes: also called variant 1-5
ELISA fold over background [1]: 1.5 fold over background
ELISA fold over background [2]: 1.5 fold over background

B19: 1-23 (antibody, V domains shown)
VH: EVQLLESGGGLVQPGGSLRLSCAASGFTFSSYAISWVRQAPGKGLEWVSIISGSGGSTYYADSVKGRFTISRDNSKNTLYLQMNSLRAEDTAVYYCAREGYRDYLWYFDLWGQGTLVTVSS
VL: QSALTQPASVSGSPGQSITISCTGTSNDVGSYNLVSWYQQHPGKAPKLMIYEGNKRPSGVSNRFSGSKSGNTASLTISGLQAEDEADYYCCSYAGSYTVFGGGTKLTVL
notes: also called variant 1-23
ELISA fold over background [1]: 5.1 fold over background
ELISA fold over background [2]: 5.1 fold over background

B20: 1-24 (antibody, V domains shown)
VH: B19 VH with I34M, S35N
VL: B19 VL with N27S, S31Y, S96G, Y97S, T98V
notes: also called variant 1-24
ELISA fold over background [1]: 12.9 fold over background
ELISA fold over background [2]: 12.9 fold over background
